Measurements published in patent publication US20120149881A1 (Genentech, published 2012).

B1: humanized anti-IgE/M1′ antibody 26A11.v1 (antibody, V domains shown)
VH: EVQLVESGGGLVQPGGSLRLSCAASGYTFTDYYMMWVRQAPGKGLEWVGDINPNNYDTSYNQKFKGRFTISADTSKNTAYLQMNSLRAEDTAVYYCASKAYWGQGTLVTVSS
VL: DIQMTQSPSSLSASVGDRVTITCRSSQDISNSLNWYQQKPGKAPKLLIYSTSRLHSGVPSRFSGSGSGTDFTLTISSLQPEDFATYYCQQGHTLPWTFGQGTKVEIKR
notes: direct CDR graft, produced as IgG in 293 cells
B2: humanized anti-IgE/M1′ antibody 26A11.v13 (antibody, V domains shown)
VH: EVQLVESGGGLVQPGGSLRLSCAASGYTFTDYYMMWVRQAPGKGLEWVGDINPNNYDTSYNQKFKGRFTISADTSKNTAYLQMNSLRAEDTAVYYCASKAYWGQGTLVTVSS
VL: DIQMTQSPSSLSASVGDRVTITCRSSQDISSSLNWYQQKPGKAPKLLIYSTSRLHSGVPSRFSGSGSGTDFTLTISSLQPEDFATYYCQQGHTLPWTFGQGTKVEIKR
notes: produced as IgG
B3: humanized anti-IgE/M1′ antibody 26A11.v15 (antibody, V domains shown)
VH: EVQLVESGGGLVQPGGSLRLSCAASGYTFTDYYIMWVRQAPGKGLEWVGDINPNNYDTSYNQKFKGRFTISADTSKNTAYLQMNSLRAEDTAVYYCASKAYWGQGTLVTVSS
VL: DIQMTQSPSSLSASVGDRVTITCRSSQDISSSLNWYQQKPGKAPKLLIYSTSRLHSGVPSRFSGSGSGTDFTLTISSLQPEDFATYYCQQGHTLPWTFGQGTKVEIKR
notes: produced as IgG
B4: humanized anti-IgE/M1′ antibody 26A11.v3 (antibody, V domains shown)
VH: EVQLVESGGGLVQPGGSLRLSCAASGYTFTDYYMMWVRQAPGKGLEWVGDINPNNYDTSYNQKFKGRFTISADTSKNTAYLQMNSLRAEDTAVYYCASKAYWGQGTLVTVSS
VL: DIQMTQSPSSLSASVGDRVTITCRSSQDISNYLNWYQQKPGKAPKLLIYSTSRLHSGVPSRFSGSGSGTDFTLTISSLQPEDFATYYCQQGHTLPWTFGQGTKVEIKR
notes: produced as IgG
B5: humanized anti-IgE/M1′ antibody 26A11.v5 (antibody, V domains shown)
VH: EVQLVESGGGLVQPGGSLRLSCAASGYTFTDYYIMWVRQAPGKGLEWVGDINPNNYDTSYNQKFKGRFTISADTSKNTAYLQMNSLRAEDTAVYYCASKAYWGQGTLVTVSS
VL: DIQMTQSPSSLSASVGDRVTITCRSSQDISNALNWYQQKPGKAPKLLIYSTSRLHSGVPSRFSGSGSGTDFTLTISSLQPEDFATYYCQQGHTLPWTFGQGTKVEIKR
notes: produced as IgG
B6: humanized anti-IgE/M1′ antibody 26A11.v16 (antibody, V domains shown)
VH: EVQLVESGGGLVQPGGSLRLSCAASGYTFTDYYIMWVRQAPGKGLEWVGDINPNNYDTSYNQKFKGRFTISADTSKNTAYLQMNSLRAEDTAVYYCASKAYWGQGTLVTVSS
VL: DIQMTQSPSSLSASVGDRVTITCRSSQDISQSLNWYQQKPGKAPKLLIYSTSRLHSGVPSRFSGSGSGTDFTLTISSLQPEDFATYYCQQGHTLPWTFGQGTKVEIKR
notes: produced as IgG
B7: humanized anti-IgE/M1′ antibody 26A11.v14 (antibody, V domains shown)
VH: EVQLVESGGGLVQPGGSLRLSCAASGYTFTDYYMMWVRQAPGKGLEWVGDINPNNYDTSYNQKFKGRFTISADTSKNTAYLQMNSLRAEDTAVYYCASKAYWGQGTLVTVSS
VL: DIQMTQSPSSLSASVGDRVTITCRSSQDISQSLNWYQQKPGKAPKLLIYSTSRLHSGVPSRFSGSGSGTDFTLTISSLQPEDFATYYCQQGHTLPWTFGQGTKVEIKR
notes: produced as IgG
B8: humanized anti-IgE/M1′ antibody 26A11.v2 (antibody, V domains shown)
VH: EVQLVESGGGLVQPGGSLRLSCAASGYTFTDYYMMWVRQAPGKGLEWVGDINPNNYDTSYNQKFKGRFTISADTSKNTAYLQMNSLRAEDTAVYYCASKAYWGQGTLVTVSS
VL: DIQMTQSPSSLSASVGDRVTITCRSSQDISNALNWYQQKPGKAPKLLIYSTSRLHSGVPSRFSGSGSGTDFTLTISSLQPEDFATYYCQQGHTLPWTFGQGTKVEIKR
notes: produced as IgG
B9: humanized anti-IgE/M1′ antibody 26A11.v4 (antibody, V domains shown)
VH: EVQLVESGGGLVQPGGSLRLSCAASGYTFTDYYIMWVRQAPGKGLEWVGDINPNNYDTSYNQKFKGRFTISADTSKNTAYLQMNSLRAEDTAVYYCASKAYWGQGTLVTVSS
VL: DIQMTQSPSSLSASVGDRVTITCRSSQDISNSLNWYQQKPGKAPKLLIYSTSRLHSGVPSRFSGSGSGTDFTLTISSLQPEDFATYYCQQGHTLPWTFGQGTKVEIKR
notes: produced as IgG
B10: humanized anti-IgE/M1′ antibody 47H4.v1 (antibody, V domains shown)
VH: EVQLVESGGGLVQPGGSLRLSCAASGFTFSDYGMAWVRQAPGKGLEWVAFISDLAYTIYYADTVTGRFTISRDNSKNTLYLQMNSLRAEDTAVYYCARDNWDAMDYWGQGTLVTVSS
VL: DIQMTQSPSSLSASVGDRVTITCRSSQSLVHNNGNTYLHWYQQKPGKAPKLLIYKVSNRFSGVPSRFSGSGSGTDFTLTISSLQPEDFATYYCSQNTLVPWTFGQGTKVEIKR
notes: direct CDR graft, produced as IgG
B11: humanized anti-IgE/M1′ antibody 47H4.v2 (antibody, V domains shown)
VH: EVQLVESGGGLVQPGGSLRLSCAASGFTFSDYGMAWVRQAPGKGLEWVAFISDLAYTIYYADTVTGRFTISRDNSKNTLYLQMNSLRAEDTAVYYCARDNWDAMDYWGQGTLVTVSS
VL: DIQMTQSPSSLSASVGDRVTITCRSSQSLVHNNANTYLHWYQQKPGKAPKLLIYKVSNRFSGVPSRFSGSGSGTDFTLTISSLQPEDFATYYCSQNTLVPWTFGQGTKVEIKR
notes: produced as IgG
B12: humanized anti-IgE/M1′ antibody 47H4.v3 (antibody, V domains shown)
VH: EVQLVESGGGLVQPGGSLRLSCAASGFTFSDYGIAWVRQAPGKGLEWVAFISDLAYTIYYADTVTGRFTISRDNSKNTLYLQMNSLRAEDTAVYYCARDNWDALDYWGQGTLVTVSS
VL: DIQMTQSPSSLSASVGDRVTITCRSSQSLVHNNGNTYLHWYQQKPGKAPKLLIYKVSNRFSGVPSRFSGSGSGTDFTLTISSLQPEDFATYYCSQNTLVPWTFGQGTKVEIKR
notes: produced as IgG
B13: humanized anti-IgE/M1′ antibody 47H4.v4 (antibody, V domains shown)
VH: EVQLVESGGGLVQPGGSLRLSCAASGFTFSDYGIAWVRQAPGKGLEWVAFISDLAYTIYYADTVTGRFTISRDNSKNTLYLQMNSLRAEDTAVYYCARDNWDALDYWGQGTLVTVSS
VL: DIQMTQSPSSLSASVGDRVTITCRSSQSLVHNNANTYLHWYQQKPGKAPKLLIYKVSNRFSGVPSRFSGSGSGTDFTLTISSLQPEDFATYYCSQNTLVPWTFGQGTKVEIKR
notes: produced as IgG

Columns and labels:
[1] = biological target: T1, human IgE CH3-CH4-M1′/Fc fusion protein (human); experiment: SPR Biacore A100, M1′ immobilized
T1 construct: also called M1′ (immobilized)

[2] = biological target: T1, human IgE CH3-CH4-M1′/Fc fusion protein; experiment: SPR Biacore 2000, M1′-Fc immobilized
[3] = biological target: T2, human IgE with the M1′ sequence (long form of membrane IgE) expressed on transduced BJAB or Daudi cells (human, UniProt P01854 116-546); experiment: Scatchard analysis on cells expressing human IgE/M1′
T2 construct: Full-length heavy and light chains of the U266 IgE B cell receptor, retrovirally expressed; also called IgE/M1′; IgE-M1′
Description: The BJAB or Daudi cells expressing various forms of IgE with or without M1′ (Human, Rhesus, Cyno) were prepared for binding in cold Binding buffer composed of base media, with 10 mM HEPES pH 7.4, and 2% FBS as well as 40 ug/ml human IgG. Cells are diluted to concentration of 1.7×10⁶ cells/ml, and kept on ice until they are added to the assay. The proteins/antibodies are iodinated with the Iodogen method. Various concentrations of cold protein are prepared in triplicate, using a 1:2 dilution starting with the saturation concentration and ending at a concentration of zero, with a total of 14 concentrations. Hot protein of a single concentration is added to all dilutions compete with the cold protein. Lastly the cells are added to the hot and cold protein mixture, 250,000 cells per sample were used. Assay is kept at 4° C. for 4 hours, shaking. Each sample is then collected and filtered on membrane, washed at least 3 times with binding buffer, allowed to dry and then counted for 1 minute using Perkin Elmer Wizard 1470 Auto Gamma Counter.

[4] = biological target: T1, human IgE CH3-CH4-M1′/Fc fusion protein; experiment: SPR Biacore 2000, IgG immobilized, M1′-Fc analyte
[5] = biological target: T2, human IgE with the M1′ sequence (long …); experiment: competitive ECL binding on BJAB-IgE/M1′ cells vs biotinylated 26A11 or 47H4, 1st IC50 column
[6] = biological target: T2, human IgE with the M1′ sequence (long …); experiment: competitive ECL binding on BJAB-IgE/M1′ cells vs biotinylated 26A11 or 47H4, 2nd IC50 column

T1 sequence (chain, as listed by the source limits assumed): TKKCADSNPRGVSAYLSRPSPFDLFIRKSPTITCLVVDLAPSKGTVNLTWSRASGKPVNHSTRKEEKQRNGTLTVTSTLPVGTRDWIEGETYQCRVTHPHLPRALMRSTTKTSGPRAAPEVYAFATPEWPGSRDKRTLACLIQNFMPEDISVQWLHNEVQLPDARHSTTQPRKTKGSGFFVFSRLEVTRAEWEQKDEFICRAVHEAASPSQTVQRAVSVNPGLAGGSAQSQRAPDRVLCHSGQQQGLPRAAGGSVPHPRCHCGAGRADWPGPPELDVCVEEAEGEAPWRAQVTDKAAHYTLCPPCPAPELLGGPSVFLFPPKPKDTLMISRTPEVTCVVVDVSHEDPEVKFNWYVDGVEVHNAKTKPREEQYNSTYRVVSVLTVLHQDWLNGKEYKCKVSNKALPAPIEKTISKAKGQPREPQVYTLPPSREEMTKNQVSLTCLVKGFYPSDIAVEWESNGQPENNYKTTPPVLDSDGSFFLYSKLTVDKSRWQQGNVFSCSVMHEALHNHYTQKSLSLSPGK
T2 sequence (P01854 116-546 I515L limits assumed): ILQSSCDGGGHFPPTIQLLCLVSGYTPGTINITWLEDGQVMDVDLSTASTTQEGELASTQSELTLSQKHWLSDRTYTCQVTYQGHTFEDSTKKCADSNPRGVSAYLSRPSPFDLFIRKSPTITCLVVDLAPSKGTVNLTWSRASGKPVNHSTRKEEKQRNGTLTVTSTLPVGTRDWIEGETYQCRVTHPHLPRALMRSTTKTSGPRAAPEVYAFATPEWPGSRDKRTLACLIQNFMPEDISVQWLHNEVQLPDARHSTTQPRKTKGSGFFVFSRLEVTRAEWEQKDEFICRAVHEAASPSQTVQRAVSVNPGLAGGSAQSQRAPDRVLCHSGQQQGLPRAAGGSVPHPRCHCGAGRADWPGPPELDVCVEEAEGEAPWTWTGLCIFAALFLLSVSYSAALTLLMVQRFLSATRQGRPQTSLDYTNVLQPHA

Row | Binder | Kd [1] [nM] | Kd [2] [nM] | Kd [3] [nM] | Kd [4] [nM] | IC50 [5] [nM] | IC50 [6] [nM]
1 | B1 | 0.2 | 1.7 | 1.06 | 9 | 15 | 19
2 | B2 |  | 4 |  |  |  | 19
3 | B3 |  | 8.4 |  |  |  | 32
4 | B4 | < 0.05 | 2.8 |  |  | 10 | 22
5 | B5 |  |  |  |  | 25 | 35
6 | B6 |  | 8.8 |  |  |  | 27
7 | B7 |  | 3.9 | 1.5 |  |  | 19
8 | B8 | 0.3 |  |  |  | 18 | 
9 | B9 | 0.9 |  |  |  | 20 | 29
10 | B10 | 7.8 |  | 0.37 | 3.1 | 12 | 18
11 | B11 | 7.4 |  | 0.54 | 2.8 | 38 | 
12 | B12 | 69 |  |  |  | ~7600 | 
13 | B13 | 56 |  |  |  |  | 
